{"source": "patent US20240280570A1", "key": {"[1]": {"molecular_target": "SARS-CoV-2 RBD (Sino Biological 40592-V08H); Spike Receptor Binding Domain residues R319 - F541 His tagged (SARS-CoV-2) (UniProt P0DTC2)", "test": "OECT sensor, PEDOT:PSS channel, nanobody on gate, target in buffer"}, "[2]": {"molecular_target": "SARS-CoV-2 RBD (Sino Biological 40592-V08H); Spike Receptor Binding Domain residues R319 - F541 His tagged (SARS-CoV-2) (UniProt P0DTC2)"}, "[3]": {"molecular_target": "SARS-CoV-2 RBD (Sino Biological 40592-V08H); Spike Receptor Binding Domain residues R319 - F541 His tagged (SARS-CoV-2) (UniProt P0DTC2)", "remark": "listed apart in the source"}}, "note": "Like-named read-outs stand apart in the source and are kept apart here."}
{"substance": "VHH72-8 aa-spyCatcher-3C cleavage site-His8", "values": [{"measurement": "LOD", "setting": "[1]", "value": 0.024, "unit": "pM"}, {"measurement": "LOD", "setting": "[2]", "value": 0.048, "unit": "pM"}, {"measurement": "LOD", "setting": "[3]", "value": 0.023, "unit": "pM"}]}
